B1: Trinucleotide repeat-containing gene 6C protein (Homo sapiens), Q9HCJ0-1 (parent)
chain: MATGSAQGNFTGHTKKTNGNNGTNGALVQSPSNQSALGAGGANSNGSAARVWGVATGSSSGLAHCSVSGGDGKMDTMIGDGRSQNCWGASNSNAGINLNLNPNANPAAWPVLGHEGTVATGNPSSICSPVSAIGQNMGNQNGNPTGTLGAWGNLLPQESTEPQTSTSQNVSFSAQPQNLNTDGPNNTNPMNSSPNPINAMQTNGLPNWGMAVGMGAIIPPHLQGLPGANGSSVSQVSGGSAEGISNSVWGLSPGNPATGNSNSGFSQGNGDTVNSALSAKQNGSSSAVQKEGSGGNAWDSGPPAGPGILAWGRGSGNNGVGNIHSGAWGHPSRSTSNGVNGEWGKPPNQHSNSDINGKGSTGWESPSVTSQNPTVQPGGEHMNSWAKAASSGTTASEGSSDGSGNHNEGSTGREGTGEGRRRDKGIIDQGHIQLPRNDLDPRVLSNTGWGQTPVKQNTAWEFEESPRSERKNDNGTEAWGCAATQASNSGGKNDGSIMNSTNTSSVSGWVNAPPAAVPANTGWGDSNNKAPSGPGVWGDSISSTAVSTAAAAKSGHAWSGAANQEDKSPTWGEPPKPKSQHWGDGQRSNPAWSAGGGDWADSSSVLGHLGDGKKNGSGWDADSNRSGSGWNDTTRSGNSGWGNSTNTKANPGTNWGETLKPGPQQNWASKPQDNNVSNWGGAASVKQTGTGWIGGPVPVKQKDSSEATGWEEPSPPSIRRKMEIDDGTSAWGDPSNYNNKTVNMWDRNNPVIQSSTTTNTTTTTTTTTSNTTHRVETPPPHQAGTQLNRSPLLGPGRKVSSGWGEMPNVHSKTENSWGEPSSPSTLVDNGTAAWGKPPSSGSGWGDHPAEPPVAFGRAGAPVAASALCKPASKSMQEGWGSGGDEMNLSTSQWEDEEGDVWNNAASQESTSSCSSWGNAPKKGLQKGMKTSGKQDEAWIMSRLIKQLTDMGFPREPAEEALKSNNMNLDQAMSALLEKKVDVDKRGLGVTDHNGMAAKPLGCRPPISKESSVDRPTFLDKDGGLVEEPTPSPFLPSPSLKLPLSHSALPSQALGGIASGLGMQNLNSSRQIPSGNLGMFGNSGAAQARTMQQPPQPPVQPLNSSQPSLRAQVPQFLSPQVQAQLLQFAAKNIGLNPALLTSPINPQHMTMLNQLYQLQLAYQRLQIQQQMLQAQRNVSGSMRQQEQQVARTITNLQQQIQQHQRQLAQALLVKQPPPPPPPPHLSLHPSAGKSAMDSFPSHPQTPGLPDLQTKEQQSSPNTFAPYPLAGLNPNMNVNSMDMTGGLSVKDPSQSQSRLPQWTHPNSMDNLPSAASPLEQNPSKHGAIPGGLSIGPPGKSSIDDSYGRYDLIQNSESPASPPVAVPHSWSRAKSDSDKISNGSSINWPPEFHPGVPWKGLQNIDPENDPDVTPGSVPTGPTINTTIQDVNRYLLKSGGKLSDIKSTWSSGPTSHTQASLSHELWKVPRNSTAPTRPPPGLTNPKPSSTWGASPLGWTSSYSSGSAWSTDTSGRTSSWLVLRNLTPQIDGSTLRTLCLQHGPLITFHLNLTQGNAVVRYSSKEEAAKAQKSLHMCVLGNTTILAEFAGEEEVNRFLAQGQALPPTSSWQSSSASSQPRLSAAGSSHGLVRSDAGHWNAPCLGGKGSSELLWGGVPQYSSSLWGPPSADDSRVIGSPTPLTTLLPGDLLSGESL

Columns and labels:
[1] = variants of: B1; details: with cnot1_human CNOT1, A5YKK6
pabp_drome pAbp, P21187 [2] = variants of: B1; details: with pabp_drome pAbp
pabp_drome pAbp, P21187 [3] = variants of: B1; details: with pabp_drome pAbp; remark: listed apart in the source
pabp_drome pAbp, P21187 [4] = variants of: B1; details: with pabp_drome pAbp; remark: listed apart in the source

Chain of pabp_drome pAbp, P21187 (P21187 whole entry): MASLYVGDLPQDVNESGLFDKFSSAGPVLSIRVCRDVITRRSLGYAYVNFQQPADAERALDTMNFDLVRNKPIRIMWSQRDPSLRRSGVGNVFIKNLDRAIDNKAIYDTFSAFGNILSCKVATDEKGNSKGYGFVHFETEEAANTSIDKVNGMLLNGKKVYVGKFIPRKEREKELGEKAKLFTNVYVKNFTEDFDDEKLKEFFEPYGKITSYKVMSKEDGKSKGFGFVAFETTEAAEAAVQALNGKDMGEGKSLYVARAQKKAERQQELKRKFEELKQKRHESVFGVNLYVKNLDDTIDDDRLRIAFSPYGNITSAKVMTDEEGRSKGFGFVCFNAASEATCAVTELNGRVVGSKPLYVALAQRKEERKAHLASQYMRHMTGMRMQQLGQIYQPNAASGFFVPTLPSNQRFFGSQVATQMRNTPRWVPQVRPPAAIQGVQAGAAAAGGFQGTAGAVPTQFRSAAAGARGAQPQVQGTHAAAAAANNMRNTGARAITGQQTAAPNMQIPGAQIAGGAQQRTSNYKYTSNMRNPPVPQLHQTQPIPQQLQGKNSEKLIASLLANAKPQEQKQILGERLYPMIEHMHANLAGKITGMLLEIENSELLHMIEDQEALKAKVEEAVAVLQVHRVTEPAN
Chain of cnot1_human CNOT1, A5YKK6 (A5YKK6 whole entry): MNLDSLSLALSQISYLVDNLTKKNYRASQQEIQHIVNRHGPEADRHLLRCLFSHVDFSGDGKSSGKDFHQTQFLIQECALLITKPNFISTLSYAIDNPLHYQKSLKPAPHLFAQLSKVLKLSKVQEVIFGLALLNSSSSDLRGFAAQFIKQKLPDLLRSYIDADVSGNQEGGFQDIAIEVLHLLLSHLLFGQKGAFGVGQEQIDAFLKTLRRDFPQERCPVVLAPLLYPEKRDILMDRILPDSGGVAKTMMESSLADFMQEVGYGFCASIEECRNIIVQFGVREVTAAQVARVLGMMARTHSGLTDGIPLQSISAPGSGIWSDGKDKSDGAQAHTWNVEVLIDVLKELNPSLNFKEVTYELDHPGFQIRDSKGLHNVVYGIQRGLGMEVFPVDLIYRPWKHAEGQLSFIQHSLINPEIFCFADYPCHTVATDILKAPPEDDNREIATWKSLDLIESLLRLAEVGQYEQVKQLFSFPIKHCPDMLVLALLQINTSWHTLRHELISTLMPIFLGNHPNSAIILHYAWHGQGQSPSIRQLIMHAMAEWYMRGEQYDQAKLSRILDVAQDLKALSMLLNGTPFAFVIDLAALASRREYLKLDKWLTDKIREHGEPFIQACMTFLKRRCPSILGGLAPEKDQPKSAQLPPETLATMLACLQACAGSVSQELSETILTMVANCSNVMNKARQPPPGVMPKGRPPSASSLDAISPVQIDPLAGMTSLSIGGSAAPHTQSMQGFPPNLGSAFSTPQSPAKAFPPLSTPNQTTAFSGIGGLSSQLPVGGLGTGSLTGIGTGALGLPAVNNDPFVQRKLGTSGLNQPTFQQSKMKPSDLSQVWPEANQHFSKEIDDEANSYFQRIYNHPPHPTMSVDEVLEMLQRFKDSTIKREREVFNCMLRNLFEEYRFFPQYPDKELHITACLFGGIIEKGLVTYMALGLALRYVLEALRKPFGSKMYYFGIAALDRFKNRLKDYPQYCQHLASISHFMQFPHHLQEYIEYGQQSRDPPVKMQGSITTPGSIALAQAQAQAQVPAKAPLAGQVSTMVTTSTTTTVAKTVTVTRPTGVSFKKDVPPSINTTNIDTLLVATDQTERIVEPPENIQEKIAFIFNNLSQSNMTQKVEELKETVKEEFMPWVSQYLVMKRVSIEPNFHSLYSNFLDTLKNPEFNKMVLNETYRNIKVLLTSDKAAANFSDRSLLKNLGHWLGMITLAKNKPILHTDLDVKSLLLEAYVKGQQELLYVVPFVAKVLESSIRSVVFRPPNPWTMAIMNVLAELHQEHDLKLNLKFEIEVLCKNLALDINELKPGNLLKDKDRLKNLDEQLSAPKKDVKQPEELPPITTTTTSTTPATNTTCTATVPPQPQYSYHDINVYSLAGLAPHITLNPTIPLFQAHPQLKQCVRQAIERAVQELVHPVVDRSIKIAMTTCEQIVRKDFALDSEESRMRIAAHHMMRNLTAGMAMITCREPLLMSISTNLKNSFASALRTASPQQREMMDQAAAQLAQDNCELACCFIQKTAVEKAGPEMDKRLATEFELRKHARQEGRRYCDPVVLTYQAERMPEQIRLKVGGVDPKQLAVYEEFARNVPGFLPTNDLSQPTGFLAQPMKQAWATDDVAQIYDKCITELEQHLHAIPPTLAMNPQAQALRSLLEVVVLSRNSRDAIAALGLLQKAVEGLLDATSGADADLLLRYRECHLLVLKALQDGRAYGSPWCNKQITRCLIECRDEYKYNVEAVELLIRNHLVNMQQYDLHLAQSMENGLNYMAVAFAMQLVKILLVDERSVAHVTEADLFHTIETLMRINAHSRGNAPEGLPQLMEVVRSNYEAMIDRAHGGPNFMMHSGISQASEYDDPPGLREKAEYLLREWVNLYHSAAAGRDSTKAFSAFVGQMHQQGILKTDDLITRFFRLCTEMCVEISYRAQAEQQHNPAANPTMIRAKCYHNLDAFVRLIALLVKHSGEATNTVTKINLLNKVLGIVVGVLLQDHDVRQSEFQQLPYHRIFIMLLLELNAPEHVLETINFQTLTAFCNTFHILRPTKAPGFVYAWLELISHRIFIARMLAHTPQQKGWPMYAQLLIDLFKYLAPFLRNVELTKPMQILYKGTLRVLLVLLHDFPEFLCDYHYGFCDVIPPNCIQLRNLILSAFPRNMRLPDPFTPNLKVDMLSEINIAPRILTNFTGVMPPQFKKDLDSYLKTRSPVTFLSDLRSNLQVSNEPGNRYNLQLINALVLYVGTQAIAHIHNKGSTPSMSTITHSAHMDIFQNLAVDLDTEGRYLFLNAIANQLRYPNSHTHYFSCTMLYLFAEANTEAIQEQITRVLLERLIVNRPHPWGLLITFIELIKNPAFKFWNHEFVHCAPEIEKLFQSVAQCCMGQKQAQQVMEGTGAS

Variant	effect of a mutation on the interaction [1]	effect of a mutation on the interaction (pabp_drome pAbp, P21187 [2])	effect of a mutation on the interaction (pabp_drome pAbp, P21187 [3])	effect of a mutation on the interaction (pabp_drome pAbp, P21187 [4])
Q1294A;S1295A;R1296A;L1297A;Q1299A;W1300A	disrupting interaction	decreasing interaction	decreasing interaction	
F1389A				disrupting interaction

Reference: IntAct's records for PubMed 23463101
